These results are taken from paper PMC10159624.

Several values for one entry are separate records, joined by “and”; a condition that tells them apart may be missing. Equal entries are not always repeated.

Common to all, as to assay: EMSA
Common to all, as to conditions: 25 mM Tris pH 8.0, 100 mM KCl, 10 mM MgCl2, 10% glycerol, 1 mM TCEP, +/- 5 mM ATP-MgOAc2, 20 pM dsRNA, 30 min at 4 C; 5% native PAGE in 0.5x TBE at 4 C
(In general: Mobility shift assays separate free from complexed probe on a gel.)

For data set [1], the system named is AncD1LOPH/DEUT HEL-DUF (reconstructed ancestor (lophotrochozoan/deuterostome Dicer-1, ML tree)).
Data set [2] concerns AncD1D2 HEL-DUF (reconstructed ancestor (animal Dicer-1/Dicer-2, ML tree)).
Data set [3] deals with AncD1ARTH/LOPH/DEUT HEL-DUF (reconstructed ancestor (arthropod/lophotrochozoan/deuterostome Dicer-1, ML tree)).
Data set [4] has as its system AncD1DEUT HEL-DUF (reconstructed ancestor (deuterostome Dicer-1, ML tree)).
The test system of data set [5] is AncD1VERT HEL-DUF (reconstructed ancestor (vertebrate Dicer-1, ML tree)).

For the sequence “GGGAAGCUCAGAAUAUUGCACAAGUAGAGCUUCUCGAUCCCC / GGGGAUCGAGAAGCUCUACUUGUGCAAUAUUCUGAGCUUCCC [42-bp BLT dsRNA]”, the dissociation constant Kd (as a rule, the constant that tells how readily two partners part at equilibrium) is 38 nM and 60.9 nM in data set [1]; 3.4 nM and 6.4 nM in data set [2]; 23.8 nM and 17.5 nM in data set [3]; 145 nM and 132 nM in data set [4]; 502 nM and 592 nM in data set [5].

As to “GGGAAGCUCAGAAUAUUGCACAAGUAGAGCUUCUCGAUCCCC / GGAUCGAGAAGCUCUACUUGUGCAAUAUUCUGAGCUUCCCGG [42-bp 3'ovr dsRNA]”, the Kd is 49 nM and 90.8 nM in data set [1]; 6.5 nM and 15.9 nM in data set [2]; 40.1 nM and 17.3 nM in data set [3]; 140 nM and 150 nM in data set [4]; 538 nM and 500 nM in data set [5].
